Test results: paper PMC2628294
Values belong to the substance of their own block, whether it stands above or below them.

Assays:
[1] = molecular target: GlcNAc-containing IgG1-Fc (2) (human); assay: SEC
[2] = molecular target: soluble human FcγIIIa receptor (human) (UniProt P08637); assay: SPR
[3] = molecular target: PNGase F deglycosylated IgG1-Fc (human); assay: SDS-PAGE under non-reducing conditions
[4] = molecular target: yeast-expressed recombinant human IgG1-Fc (1) (human); assay: SDS-PAGE under non-reducing conditions
[5] = molecular target: yeast-expressed recombinant human IgG1-Fc (1) (human); assay: SEC

UniProt P08637, sequence (P08637 17-208): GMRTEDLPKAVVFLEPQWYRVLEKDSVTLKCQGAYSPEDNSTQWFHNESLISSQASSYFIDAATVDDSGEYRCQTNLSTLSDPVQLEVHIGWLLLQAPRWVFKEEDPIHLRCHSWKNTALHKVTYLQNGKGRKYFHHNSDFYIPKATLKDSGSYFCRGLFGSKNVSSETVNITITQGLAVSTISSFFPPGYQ

stoichiometry N [1]: 2
fold less active in binding than the Fc glycoform (4) [2]: > 17 fold
Substance: GlcNAc-containing IgG1-Fc (2) (domain or fragment)

fold more active in binding than the CHO-expressed IgG1-Fc [2]: 2 fold
Substance: IgG1-Fc glycoform (4), Man3GlcNAc2-IgG1-Fc (domain or fragment)

fold more active in binding than the CHO-expressed IgG1-Fc [2]: 1.4 fold
Substance: IgG1-Fc glycoform (6), Gal2Man3GlcNAc2-IgG1-Fc (domain or fragment)

stoichiometry N [3]: 2
Substance: PNGase F deglycosylated IgG1-Fc (domain or fragment)

stoichiometry N [4]: 2
stoichiometry N [5]: 2
Substance: yeast-expressed recombinant human IgG1-Fc (1) (domain or fragment)
